# Values of other authors as cited in article PMC8894873.
# Molecular target: Glu66 (UniProt position 148, FTKKMEENAKK)
# Assay: stability (inferred; the article mentions only a pH dependence of stability)
substance,measurement,value
Staphylococcal nuclease V66E variant (Staphylococcus aureus; V66E),pKa,8.8
